The source of these data is the supplement of paper PMC11246515.

A short description of this data set: total protein half-life in vivo (active degradation + dilution); higher = more stable protein.
[1] abbreviates: E. coli NCM3722 delta-clpP delta-lon delta-hslV, growth: N-lim chemostat, doubling time 6 h.
Setting [2] is: E. coli NCM3722 delta-clpP, growth: N-lim chemostat, doubling time 6 h.
The mark [3] stands for this setting: E. coli NCM3722 delta-hslV, growth: N-lim chemostat, doubling time 6 h.
[4] abbreviates: E. coli NCM3722 delta-lon, growth: N-lim chemostat, doubling time 6 h.
The mark [5] stands for this setting: E. coli NCM3722 delta-smpB, growth: N-lim chemostat, doubling time 6 h.
Setting [6] is: wild type E. coli NCM3722, growth: C-lim chemostat, doubling time 3 h.
Where [7] appears, read: wild type E. coli NCM3722, growth: C-lim chemostat, doubling time 6 h.
The mark [8] stands for this setting: wild type E. coli NCM3722, growth: C-lim chemostat, doubling time 12 h.
Setting [9] is: wild type E. coli NCM3722, growth: N-lim chemostat, doubling time 6 h.
The mark [10] stands for this setting: wild type E. coli NCM3722, growth: N-lim chemostat, doubling time 12 h.
Where [11] appears, read: wild type E. coli NCM3722, growth: P-lim chemostat, doubling time 6 h.
Setting [12] is: wild type E. coli NCM3722, growth: P-lim chemostat, doubling time 12 h.

± gives the standard deviation of the averaged measurements.

Take “MVAVRSAHINKAGEFDPEKWIASLGITSQKSCECLAETWAYCLQQTQGHPDASLLLWRGVEMVEILSTLSMDIDTLRAALLFPLADANVVSEDVLRESVGKSVVNLIHGVRDMAAIRQLKATHTDSVSSEQVDNVRRMLLAMVDDFRCVVIKLAERIAHLREVKDAPEDERVLAAKECTNIYAPLANRLGIGQLKWELEDYCFRYLHPTEYKRIAKLLHERRLDREHYIEEFVGHLRAEMKAEGVKAEVYGRPKHIYSIWRKMQKKNLAFDELFDVRAVRIVAERLQDCYAALGIVHTHYRHLPDEFDDYVANPKPNGYQSIHTVVLGPGGKTVEIQIRTKQMHEDAELGVAAHWKYKEGAAAGGARSGHEDRIAWLRKLIAWQEEMADSGEMLDEVRSQVFDDRVYVFTPKGDVVDLPAGSTPLDFAYHIHSDVGHRCIGAKIGGRIVPFTYQLQMGDQIEIITQKQPNPSRDWLNPNLGYVTTSRGRSKIHAWFRKQDRDKNILAGRQILDDELEHLGISLKEAEKHLLPRYNFNDVDELLAAIGGGDIRLNQMVNFLQSQFNKPSAEEQDAAALKQLQQKSYTPQNRSKDNGRVVVEGVGNLMHHIARCCQPIPGDEIVGFITQGRGISVHRADCEQLAELRSHAPERIVDAVWGESYSAGYSLVVRVVANDRSGLLRDITTILANEKVNVLGVASRSDTKQQLATIDMTIEIYNLQVLGRVLGKLNQVPDVIDARRLHGS [P0AG20]”: the “total protein half-life in vivo” value amounted to 5.7 ± 0.41 h under setting [1]; 5.46 ± 0.31 h under setting [2]; 4.65 ± 0.24 h under setting [3]; 4.99 ± 0.054 h under setting [4]; 4.36 ± 0.23 h under setting [5]; 2.68 ± 0.21 h under setting [6]. Further, the “total protein half-life in vivo” value runs as follows: under setting [7], 4.87 ± 0.11 h; under setting [8], 8.04 ± 0.43 h; under setting [9], 4.74 ± 0.17 h; under setting [10], 7.78 ± 0.22 h; under setting [11], 4.8 ± 0.23 h; under setting [12], 9.13 ± 0.26 h.
As to “MFNGRPFPVDAFPKIIRNAIYEVEQHTQAPQGLIAASALGVISLACQNRIDVCRLNNLRGPVSLFLMTLAESGERKSTVDKLLMKPLYQLEEDLFEKYTHDLTAWRNDEAIFNIEKKALMSKLKSDIRRNKDHLATNERLKELLTTNPKAPVRFKFLFNDATPAAIKAHLCGHWRSVGIMSDEAGIIFNGYTLNELPFINKMWDGSIFTVERKNEPEKLIRDARITLSLMVQPNVFKGYIDRKGDMAKGIGFFARCLMCQPASTQGNRKISNPIFSNEHLPVFHQRLMEIVNESIIKINENNRICLRFSAEAERHWIEFYNQVESEMRMIGLLYDFKDYASKMAENMARLAALLHYFSGDGGDISVTAVKAAVEIVAWYIEEYIRLFSKKEEFSLDVSEADELYCWIKDYCTQKFSSCIKKNIILQFGPNKFRNRDKANELIRILISQNKIFISSWGKTKIINITHCVF”, the “total protein half-life in vivo” value under setting [1] stood at 4.5 h.
Consider “MSELLSFALFLASVLIYAWKAGRNTWWFAATLTVLGLFVVLNITLFASDYFTGDGINDAVLYTLTNSLTGAGVSKYILPGIGIVLGLTAVFGALGWILRRRRHHPHHFGYSLLALLLALGSVDASPAFRQITELVKSQSRDGDPDFAAYYKEPSKTIPDPKLNLVYIYGESLERTYFDNEAFPDLTPELGALKNEGLDFSHTQQLPGTDYTIAGMVASQCGIPLFAPFEGNASASVSSFFPQNICLGDILKNSGYQNYFVQGANLRFAGKDVFLKSHGFDHLYGSEELKSVVADPHYRNDWGFYDDTVLDEAWKKFEELSRSGQRFSLFTLTVDTHHPDGFISRTCNRKKYDFDGKPNQSFSAVSCSQENIATFINKIKASPWFKDTVIVVSSDHLAMNNTAWKYLNKQDRNNLFFVIRGDKPQQETLAVKRNTMDNGATVLDILGGDNYLGLGRSSLSGQSMSEIFLNIKEKTLAWKPDIIRLWKFPKEMKEFTIDQQKNMIAFSGSHFRLPLLLRVSDKRVEPLPESEYSAPLRFQLADFAPRDNFVWVDRCYKMAQLWAPELALSTDWCVSQGQLGGQQIVQHVDKTTWQGKTAFKDTVIDMARYKGNVDTLKIVDNDIRYKADSFIFNVAGAPEEVKQFSGISRPESWGRWSNAQLGDEVKIEYKHPLPKKFDLVITAKAYGNNASRPIPVRVGNEEQTLVLGNEVTTTTLHFDNPTDADTLVIVPPEPVSTNEGNILGHSPRKLGIGMVEIKVVEREG”, for which the “total protein half-life in vivo” value under setting [1] was determined as 4.02 ± 0.17 h; the “total protein half-life in vivo” value under setting [2] turned out to be 2.98 ± 0.2 h; the “total protein half-life in vivo” value under setting [3] stood at 3.42 ± 0.56 h; the “total protein half-life in vivo” value under setting [4] is 4.63 ± 0.46 h; the “total protein half-life in vivo” value under setting [5] was 3.47 ± 0.035 h; the “total protein half-life in vivo” value under setting [6] worked out at 2.17 ± 0.05 h. Moreover, the “total protein half-life in vivo” value is, setting by setting: under setting [7], 2.99 ± 0.12 h; under setting [8], 3.93 ± 0.84 h; under setting [9], 3.35 ± 0.42 h; under setting [10], 4.45 ± 0.4 h.
Consider “MIGRLRGIIIEKQPPLVLIEVGGVGYEVHMPMTCFYELPEAGQEAIVFTHFVVREDAQLLYGFNNKQERTLFKELIKTNGVGPKLALAILSGMSAQQFVNAVEREEVGALVKLPGIGKKTAERLIVEMKDRFKGLHGDLFTPAADLVLTSPASPATDDAEQEAVAALVALGYKPQEASRMVSKIARPDASSETLIREALRAAL [P0A809]”, for which the “total protein half-life in vivo” value reads like this: under setting [1], 5.02 ± 0.64 h; under setting [2], 4.88 ± 0.9 h; under setting [3], 5.46 ± 0.47 h; under setting [4], 4.88 ± 0.49 h; under setting [5], 5.59 ± 0.069 h; under setting [6], 2.99 ± 0.28 h. In addition, the “total protein half-life in vivo” value reads like this: under setting [7], 5.04 ± 0.43 h; under setting [8], 10.3 ± 3.1 h; under setting [9], 4.95 ± 0.26 h; under setting [10], 7.6 ± 0.43 h; under setting [11], 3.73 ± 0.86 h; under setting [12], 10.13 ± 0.068 h.
Consider “MLFTLKKVIGNMLLPLPLMLLIIGAGLALLWFSRFQKTGKIFISIGWLALLLLSLQPVADRLLRPIESTYPTWNNSQKVDYIVVLGGGYTWNPQWAPSSNLINNSLPRLNEGIRLWRENPGSKLIFTGGVAKTNTVSTAEVGARVAQSLGVPREQIITLDLPKDTEEEAAAVKQAIGDAPFLLVTSASHLPRAMIFFQQEGLNPLPAPANQLAIDSPLNPWERAIPSPVWLMHSDRVGYETLGRIWQWLKGSSGEPRQE [P0AB01]”, for which the “total protein half-life in vivo” value was found to be 6.15 ± 0.43 h under setting [1]; 6.08 ± 0.23 h under setting [2]; 5.87 ± 0.097 h under setting [4]; 5.72 ± 0.58 h under setting [5]; 3.28 ± 0.37 h under setting [6]; 5.4 ± 0.28 h under setting [7]. The “total protein half-life in vivo” value by setting is: under setting [8], 10.5 ± 4.9 h; under setting [9], 6.09 ± 0.25 h; under setting [11], 6.876 ± 0.0024 h; under setting [12], 10.6 ± 2.9 h.
